According to patent US20230211007A1 (published 2023):

T1: CD20 (UniProt P11836 142-188, limits assumed)
T1 construct: Bought reagent
T1 chain (looked up): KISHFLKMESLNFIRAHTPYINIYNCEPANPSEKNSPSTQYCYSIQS


Target: T1, CD20
Test: BLI (Octet), antibody on Pro A probe, CD20 25-200 nM in solution
Method: Antibody samples were dissolved in PBS with a working concentration of 10 μg/mL; CD20 (Beijing SinoBiological Co., Ltd.) was dissolved in PBS and gradiently diluted to concentrations of 25 nM, 50 nM, 75 nM, 100 nM, 150 nM, 200 nM respectively. The working volume was 200 μL.
The data diagram was fitted by OCTET system and data-processing software, and the intermolecular interaction between the antibody and the CD20 was calculated by the software, and shown in KD value.

Binder	Kd [nM]
WT Rituximab (antibody, human IgG1, kappa, also called anti-CD20 wild-type antibody) heavy: not shown light: QIVLSQSPAILSASPGEKVTMTCRASSSVSYIHWFQQKPGSSPKPWIYATSNLASGVPVRFSGSGSGTSYSLTISRVEAEDAATYYCQQWTSNPPTFGGGTKLEIKRTVAAPSVFIFPPSDEQLKSGTASVVCLLNNFYPREAKVQWKVDNALQSGNSQESVTEQDSKDSTYSLSSTLTLSKADYEKHKVYACEVTHQGLSSPVTKSFNRGEC	5.35
anti-CD20 antibody mutant 124C (antibody, human IgG1, kappa) heavy: not shown light: QIVLSQSPAILSASPGEKVTMTCRASSSVSYIHWFQQKPGSSPKPWIYATSNLASGVPVRFSGSGSGTSYSLTISRVEAEDAATYYCQQWTSNPPTFGGGTKLEIKRTVAAPSVFIFPPSDECLKSGTASVVCLLNNFYPREAKVQWKVDNALQSGNSQESVTEQDSKDSTYSLSSTLTLSKADYEKHKVYACEVTHQGLSSPVTKSFNRGEC	8.97
anti-CD20 antibody mutant 166C (antibody, human IgG1, kappa) heavy: not shown light: QIVLSQSPAILSASPGEKVTMTCRASSSVSYIHWFQQKPGSSPKPWIYATSNLASGVPVRFSGSGSGTSYSLTISRVEAEDAATYYCQQWTSNPPTFGGGTKLEIKRTVAAPSVFIFPPSDEQLKSGTASVVCLLNNFYPREAKVQWKVDNALQSGNSQESVTECDSKDSTYSLSSTLTLSKADYEKHKVYACEVTHQGLSSPVTKSFNRGEC	4.86
